For data set [1], the target named is LKB1 (endogenous, in skeletal muscle and 3T3L1 adipocyte extracts) (UniProt Q9WTK7).
In data set [2] the test system is 141 overlapping peptides (12-15 residues in length) corresponding to the LKB1 sequence.
For data set [3], the system named is His-LKB1 fusion protein (purified).

With Fyn expressed from pcDNA3.1-Fyn-V5, the “tyrosine phosphorylation of LKB1 immunoprecipitates from 3T3L1 adipocytes (PY100 immunoblot)” value in data set [1] is “Immunoblotting of LKB1 immunoprecipitates with the PY100 phosphotyrosine antibody demonstrated Fyn-induced tyrosine phosphorylation of LKB1”. Take “Fyn-CA, constitutively active Fyn mutant (pcDNA3.1-Fyn-CA(Y527F)-V5)”: in data set [1], the “tyrosine phosphorylation of endogenous LKB1 immunoprecipitated from transfected tibialis anterior muscle (PY100 immunoblot)” value is recorded as “In the absence of Fyn-CA, there was a relatively low level of LKB1 tyrosine phosphorylation that was significantly increased by the expression of Fyn-CA”.

Regarding “recombinant His-FynT kinase (Calbiochem)”, the “in vitro phosphorylation of an overlapping peptide array (Phosphosite Detector)” value in data set [2] is “This analysis identified five tyrosines (Y60, Y156, Y166, Y261, and Y365) as potential LKB1 phosphorylation acceptor sites for the Fyn kinase”. For the same substance, in data set [3], the “tyrosine phosphorylation in an in vitro kinase reaction (PY100 phosphotyrosine immunoblot)” value was “purified His-LKB1-tagged fusion protein was tyrosine phosphorylated by purified recombinant Fyn kinase in vitro”.
